T1: His-tagged cynomolgus monkey TfR ectodomain (cyTFRC_89_760; mature protein) (cynomolgus monkey (Macaca fascicularis), UniProt Q5RDH6 89-760 (Pongo abelii entry))
T1 construct: also called cTfR; cTfR ectodomain
T1 chain: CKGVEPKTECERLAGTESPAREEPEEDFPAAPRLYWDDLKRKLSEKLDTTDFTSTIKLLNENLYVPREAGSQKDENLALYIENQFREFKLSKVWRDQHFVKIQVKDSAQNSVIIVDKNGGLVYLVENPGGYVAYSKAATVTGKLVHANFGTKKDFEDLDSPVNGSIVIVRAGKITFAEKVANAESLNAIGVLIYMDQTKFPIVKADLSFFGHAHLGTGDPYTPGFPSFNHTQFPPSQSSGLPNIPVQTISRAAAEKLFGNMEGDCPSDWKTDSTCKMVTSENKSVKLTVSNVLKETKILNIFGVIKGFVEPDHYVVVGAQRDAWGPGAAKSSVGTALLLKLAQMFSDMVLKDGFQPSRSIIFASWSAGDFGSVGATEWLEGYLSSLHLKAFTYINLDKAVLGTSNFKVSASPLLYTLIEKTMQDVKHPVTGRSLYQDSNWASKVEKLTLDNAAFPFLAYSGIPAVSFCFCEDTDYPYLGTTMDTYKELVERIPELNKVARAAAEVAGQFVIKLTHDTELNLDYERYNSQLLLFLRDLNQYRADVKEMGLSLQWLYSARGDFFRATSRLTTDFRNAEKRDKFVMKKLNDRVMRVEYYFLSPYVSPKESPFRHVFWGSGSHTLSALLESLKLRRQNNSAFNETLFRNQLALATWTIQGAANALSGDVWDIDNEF

T2: cTfR expressed on 300.19 cells (SEQ ID NO: 2) (cynomolgus monkey, UniProt Q5RDH6 1-760 (Pongo abelii entry))
T2 construct: Murine pre-B cell line 300.19, stably transfected with a plasmid expressing cTfR; also called cynomolgus TfR; cTfR-expressing 300.19 cells
T2 chain: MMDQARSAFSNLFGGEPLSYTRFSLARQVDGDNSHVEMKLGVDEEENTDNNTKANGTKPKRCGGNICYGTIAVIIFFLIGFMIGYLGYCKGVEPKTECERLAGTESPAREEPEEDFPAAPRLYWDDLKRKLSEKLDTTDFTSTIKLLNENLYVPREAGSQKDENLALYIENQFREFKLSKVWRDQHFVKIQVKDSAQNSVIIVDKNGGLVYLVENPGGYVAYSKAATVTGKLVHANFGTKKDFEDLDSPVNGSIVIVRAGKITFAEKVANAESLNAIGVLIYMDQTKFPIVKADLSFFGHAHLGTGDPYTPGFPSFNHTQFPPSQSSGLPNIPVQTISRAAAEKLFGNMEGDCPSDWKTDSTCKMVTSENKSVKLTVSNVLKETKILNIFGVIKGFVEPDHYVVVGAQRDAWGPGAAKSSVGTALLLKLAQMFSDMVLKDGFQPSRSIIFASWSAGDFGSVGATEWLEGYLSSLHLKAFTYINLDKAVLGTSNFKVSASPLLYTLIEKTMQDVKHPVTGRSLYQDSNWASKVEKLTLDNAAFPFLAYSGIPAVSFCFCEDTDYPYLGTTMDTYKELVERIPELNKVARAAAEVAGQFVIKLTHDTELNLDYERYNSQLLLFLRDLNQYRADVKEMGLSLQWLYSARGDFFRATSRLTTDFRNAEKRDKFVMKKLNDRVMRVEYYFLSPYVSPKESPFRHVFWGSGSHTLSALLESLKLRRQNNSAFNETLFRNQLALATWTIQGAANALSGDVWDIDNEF

B1: 531_1L2_variant3 Fab (Fab, V domains shown)
VH: EVQLLESGGGLVQPGGSLRLSCAASGYTFTRYWLNWVRQAPGKGLEWIGMIDPSVSETHYADSVKGRATLSVDKSKNTAYLQMNSLRAEDTAVYYCSQIRLPYYYAMDSWGQGTTVTVSS
VL: DIQMTQSPSSLSASVGDRVTITCRASQDINSFLNWYQQKPGKAVKLLIYYTSRLQSGVPSRFSGSGSGTDYTLTISSLQPEDFATYFCQQGNTLPRTFGGGTKVEIK
notes: Humanized Fab; The His-tag was removed with TEV protease before SPR
B2: 531_1L2_variant21 Fab (Fab, V domains shown)
VH: QVQLVQSGAEVKKPGASVKVSCKASGYTFTRYYLNWVRQAPGQGLEWIGMIDPSVSETHYAQKFQGRATLTVDKSTSTAYMELSSLRSEDTAVYYCSQIRLPYYYAMDSWGQGTTVTVSS
VL: B1 VL with N30S
notes: as for B1
B3: 531_1L2_variant8 Fab (Fab, V domains shown)
VH: B1 VH with W33Y
VL: B1 VL with N30S
notes: as for B1
B4: 531_1L2_variant16 Fab (Fab, V domains shown)
VH: B2 VH
VL: B1 VL
notes: as for B1
B5: 531_1L2_variant24 Fab (Fab, V domains shown)
VH: B2 VH
VL: B1 VL with N30S, Y71F
notes: as for B1
B6: 531_1L2_variant17 Fab (Fab, V domains shown)
VH: B2 VH with G26D, Y33W
VL: B1 VL with N30S
notes: as for B1
B7: 531_1L2_variant6 Fab (Fab, V domains shown)
VH: B1 VH
VL: B1 VL with N30S
notes: as for B1
B8: 531_1L2_variant14 Fab (Fab, V domains shown)
VH: B2 VH with G26D, Y33W, I48M, A68V, L70M, V72R, K74T, A79V
VL: B1 VL
notes: as for B1
B9: 531_1L2_variant4 Fab (Fab, V domains shown)
VH: B1 VH with W33Y
VL: B1 VL
notes: as for B1
B10: anti-TfR 531v25mAb-GAA (antibody, human IgG1, kappa)
heavy 1: QVQLVQSGAEVKKPGASVKVSCKASGYTFTRYYLNWVRQAPGQGLEWIGMIDPSVSETHYAQKFQGRATLTVDKSTSTAYMELSSLRSEDTAVYYCSQIRLPYYYAMDSWGQGTTVTVSSASTKGPSVFPLAPSSKSTSGGTAALGCLVKDYFPEPVTVSWNSGALTSGVHTFPAVLQSSGLYSLSSVVTVPSSSLGTQTYICNVNHKPSNTKVDKKVEPKSCDKTHTCPPCPAPELLGGPSVFLFPPKPKDTLMISRTPEVTCVVVDVSHEDPEVKFNWYVDGVEVHNAKTKPREEQYNNASRVVSVLTVLHQDWLNGKEYKCKVSNKALPAPIEKTISKAKGQPREPQVCTLPPSRDELTKNQVSLSCAVKGFYPSDIAVEWESNGQPENNYKTTPPVLDSDGSFFLVSKLTVDKSRWQQGNVFSCSVMHEALHNRFTQKSLSLSPG
heavy 2: not shown
light: not shown
B11: anti-TfR 531v25-Fab-LC-GAA (Fab)
heavy: QVQLVQSGAEVKKPGASVKVSCKASGYTFTRYYLNWVRQAPGQGLEWIGMIDPSVSETHYAQKFQGRATLTVDKSTSTAYMELSSLRSEDTAVYYCSQIRLPYYYAMDSWGQGTTVTVSSASTKGPSVFPLAPSSKSTSGGTAALGCLVKDYFPEPVTVSWNSGALTSGVHTFPAVLQSSGLYSLSSVVTVPSSSLGTQTYICNVNHKPSNTKVDKKVEPKSC
light: not shown
notes: Fab with human GAA fused to the C-terminus of the light chain; also called 531v25Fab-GAA

Eleven molecules from US20240226314A1 (Sanofi, published 2024) can be followed below.

Where a chain is given by its changes, count along the chain named.

The target in one experiment is His-tagged mouse TfR ectodomain (mTFRC_89_764; mature protein) (mouse, UniProt Q62351 89-763). The experiment can be described thus: SPR, His-tagged mTfR ectodomain captured on anti-His. As for the experimental part: (§1) Binding of the humanized Fab variants to human, cynomolgus and mouse TfR was assessed using SPR at pH 7.4. Experiments were run on a Bruker MASS-2 instrument with HBS-EP+ as running buffer and sample diluent (Cytiva Life Sciences, #BR100826). HCA sensor chips (Bruker, #1862614) were immobilized with anti-His antibody (His capture kit, Cytiva Life Sciences, #28995056) following manufacturer's instructions. About 10,000 RU of anti-His was obtained. His-tagged hTfR ectodomain (SEQ ID NO: 39), cTfR ectodomain (SEQ ID NO: 40) or mouse TfR ectodomain (SEQ ID NO: 41) (5 μg/ml) was captured for 1 min at 10 μL/min. Concentration series of the humanized Fab variants were then injected for 4 min at 30 μL/min over hTfR surfaces and dissociation was monitored for 5 min. Surface was regenerated with one 1 min pulse of 10 mM glycine-HCl at pH 1.5.
His-tagged mouse TfR ectodomain (mTFRC_89_764; mature protein), sequence (Q62351 other isoform, or with tags, fused parts or gaps): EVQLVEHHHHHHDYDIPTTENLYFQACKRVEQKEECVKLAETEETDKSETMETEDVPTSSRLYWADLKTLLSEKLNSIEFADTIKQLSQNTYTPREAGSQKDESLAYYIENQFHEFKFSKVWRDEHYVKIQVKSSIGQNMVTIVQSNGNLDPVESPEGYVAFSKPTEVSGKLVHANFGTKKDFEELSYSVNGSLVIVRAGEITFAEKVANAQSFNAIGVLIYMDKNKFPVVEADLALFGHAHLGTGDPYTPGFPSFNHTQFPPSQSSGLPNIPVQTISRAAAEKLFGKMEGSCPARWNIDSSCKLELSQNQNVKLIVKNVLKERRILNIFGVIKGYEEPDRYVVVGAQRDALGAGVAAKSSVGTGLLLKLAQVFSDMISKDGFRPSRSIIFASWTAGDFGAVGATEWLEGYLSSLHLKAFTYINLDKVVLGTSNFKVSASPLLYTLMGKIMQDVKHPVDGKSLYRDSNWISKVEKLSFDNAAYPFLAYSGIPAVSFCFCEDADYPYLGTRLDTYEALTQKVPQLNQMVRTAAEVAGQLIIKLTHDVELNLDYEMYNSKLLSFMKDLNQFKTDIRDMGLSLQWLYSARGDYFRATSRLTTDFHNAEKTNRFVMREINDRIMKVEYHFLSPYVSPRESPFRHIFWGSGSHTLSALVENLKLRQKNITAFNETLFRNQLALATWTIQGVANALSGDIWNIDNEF
A general note: In SPR one partner is held on a chip, and binding of the other changes the refractive index at the surface.
On to B1, for which the binding result is “no binding”.
Same read-out and setting: with B2 the entry was “no binding”; with B3, “no binding”; with B4, “no binding”.
As for B5, the binding result is on record as “no binding”.
In the case of B6, the binding result is given as “no binding”.
Turning to B7, the binding result is “no binding”.
Turning to B8, the binding result was “no binding”.
On the same count and under the same terms, under B9 stands “no binding”.

The next experiment has as its target T1, His-tagged cynomolgus monkey TfR …. The experiment in a line: SPR, His-tagged TfR ectodomain captured on anti-His, 1:1 fit. As for the experimental part:
as §1
B1 yielded a Kd of 204 nM.
The molecule B2 had a Kd of 30.9 nM.
The molecule B3 yielded a dissociation constant Kd of 475 nM.
On the same count and under the same terms, with B4 the figure was 70.4 nM; with B5, 84.6 nM; with B6, 28.9 nM.
In turn, B7 showed a Kd of 300 nM.
Still for that read-out and setting: with B8 the figure was 75.1 nM.
The molecule B9 displayed a Kd of 1210 nM.

Another experiment deals with T3, His-tagged human TfR ectodomain (hTFRC_89-760_G142S; mature protein) (human, UniProt P02786 89-760).
T3 construct: It carries the G142S haplotype; also called hTfR ectodomain
T3 sequence (P02786 89-760 G142S): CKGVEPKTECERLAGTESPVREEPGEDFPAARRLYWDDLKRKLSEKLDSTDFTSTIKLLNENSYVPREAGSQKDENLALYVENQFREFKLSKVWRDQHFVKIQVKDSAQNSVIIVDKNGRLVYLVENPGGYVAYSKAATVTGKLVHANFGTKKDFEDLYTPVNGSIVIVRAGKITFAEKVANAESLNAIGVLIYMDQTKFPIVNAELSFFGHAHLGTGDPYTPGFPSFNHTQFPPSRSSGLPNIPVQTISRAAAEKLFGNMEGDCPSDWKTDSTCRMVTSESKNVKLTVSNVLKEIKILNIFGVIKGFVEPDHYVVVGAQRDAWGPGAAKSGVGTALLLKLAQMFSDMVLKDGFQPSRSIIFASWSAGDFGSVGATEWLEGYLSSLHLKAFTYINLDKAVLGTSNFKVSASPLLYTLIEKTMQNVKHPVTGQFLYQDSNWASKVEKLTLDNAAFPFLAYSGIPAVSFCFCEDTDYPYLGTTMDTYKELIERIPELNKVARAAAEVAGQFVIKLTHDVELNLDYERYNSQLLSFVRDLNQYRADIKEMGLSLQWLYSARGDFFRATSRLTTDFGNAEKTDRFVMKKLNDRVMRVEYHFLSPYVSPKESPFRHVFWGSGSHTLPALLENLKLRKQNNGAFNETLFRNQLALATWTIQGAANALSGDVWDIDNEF
The description is as above. As to the method: as §1
On to B1, for which the equilibrium dissociation constant (Kd) was found to be 183 nM.
The same measure, in the same setting: with B2 the figure was 3.71 nM.
Still for that read-out and setting: with B3 the figure was 61.2 nM; with B4, 10.2 nM.
Regarding B5, the dissociation constant Kd came to 10.2 nM.
Still for that read-out and setting: with B6 the figure was 5.91 nM.
Still for that read-out and setting: with B7 the figure was 77.4 nM; with B8, 8.6 nM.
B9 had a Kd of 120 nM.

The target in a further experiment is T2, cTfR expressed on 300.19 cells (SEQ ID …). The experiment can be described thus: flow cytometry; EC50 on cTfR cells against EC50 on hTfR cells. As for the experimental part:
(§2) The binding kinetics of the four anti-TfR-GAA molecules to hTfR-expressing 300.19 cells and cTfR-expressing 300.19 cells were determined by flow cytometry. 300.19 is a murine pre-B cell line, originating from a lymphoma, and was stably transfected by nucleoporation with a plasmid expressing either hTfR or cTfR (SEQ ID NO: 1 and SEQ ID NO: 2, respectively).
(§3) 300.19 TFRC-expressing cells were coated at 5×10⁵ cells/well on 96-well High Bind plate (MSD L15XB-3) and 100 μL/well of anti-TfR-GAA molecule were added and incubated for 45 min at 4° C. and washed three times with PBS 1% BSA. […] Antibody binding was evaluated after centrifugation and resuspension of cells by adding 200 μl/well PBS 1% BSA and read using Guava® easyCyte™ 8HT Flow Cytometry System.
In the case of B10, the “Cynomolgus/human ratio (TfR)” value amounted to 1.
Take B11: the “Cynomolgus/human ratio (TfR)” value was 7.5.

The target is the same in the next experiment. The experiment in a line: flow cytometry on cTfR-expressing 300.19 cells. As for the experimental part:
as §2, §3
In general terms: Flow cytometry measures light scatter and fluorescence of single cells or particles in a stream.
B10 gave an EC50 of 2.6 nM.
B11 gave an EC50 of 74.6 nM.

For another experiment, the target named is T1, His-tagged cynomolgus monkey TfR …. The experiment can be described thus: SPR; KD on cTfR against KD on hTfR. As for the experimental part:
as §1
Turning to B1, the “Cynomolgus/human KD ratio” value amounted to 1.1.
The same measure, in the same setting: under B2 stands 8.3; under B3, 7.8.
Still for that read-out and setting: with B4 the figure was 6.9.
Same read-out and setting: with B5 the figure was 8.3; with B6, 4.9; with B7, 3.9.
For the molecule B8, the “Cynomolgus/human KD ratio” value was 8.7.
For the molecule B9, the “Cynomolgus/human KD ratio” value was determined as 10.1.

The next experiment addresses T4, hTfR expressed on 300.19 cells (SEQ ID NO: 1) (human, UniProt P02786 1-760).
T4 construct: Murine pre-B cell line 300.19, stably transfected with a plasmid expressing hTfR; also called human TfR; hTfR-expressing 300.19 cells
The experiment can be described thus: flow cytometry on hTfR-expressing 300.19 cells. As to the method:
as §2, §3
Molecule B10 yielded an EC50 of 2.7 nM.
With B11, the concentration for a half-maximal effect (EC50) was 9.9 nM.

The term Kd denotes the constant that tells how readily two partners part at equilibrium. For orientation: EC50 means the concentration giving half of the maximal effect.
